Data taken from a protein production outcome set (Wang et al. 2014).

Assay: label from the status in PepcDB records

For “MTIPYKEQRLPIEKVFRDPVHNYIHVQHQVILDLINSAEVQRLRRIKQLGTSSFTFHGAEHSRFSHSLGVYEITRRICEIFQRNYSVERLGENGWNDDERLITLCAALLHDVGHGPYSHTFEHIFDTNHEAITVQIITSPETEVYQILNRVSADFPEKVASVITKQYPNPQVVQMISSQIDADRMDYLLRDAYFTGTEYGTFDLTRILRVIRPYKGGIAFAMNGMHAVEDYIVSRYQMYVQVYFHPVSRGMEVILDHLLHRAKELFENPEFDYDLQASLLVPFFKGDFTLQEYLKLDDGVLSTYFTQWMDVPDSILGDLAKRFLMRKPLKSATFTNEKESAATIAYLRELIEKVGFNPKYYTAINSSYDLPYDFYRPNKDRHRTQIELMQKDGSLVELATVSPLVAALAGQSQGDERFYFPKEMLDQGNKKHYDLFDETYREFSSYIHNGALVLKK”, which protein production is on record?
Its protein production is “not failed”.

For “MTIQPDFNDEPGAFAMTHTHTALDKTLKERIFHALAFEGLAVLLTAPVLSLVMNKPLAHMGALTLMFSTVAMLWNMLFNSLFDRAQRRMGFQRTLQVRVLHAMLFELGLIVVLVPLAAWWLSIGLVEAFLLDMGLILFFLPYTMAFNWSYDVLRARLVESRQAKAAGCDAG”, which protein production is on record?
Its protein production is “failed”.

For “MTIQSEQALEQGLIKTLVSMNYQKIEIADENALIVNFRNQLNIHNNIELTDDEFNRIMIHLDSGSIFVKAEKLRNRFPLTRDDESVKWIEFLNTQEWCKNEFQVSNQITDEGRRKCRYDVTILVNGLPLVQVELKKRGVELKQAYSQVQRYHKTAFKGLFNYIQIFVISNGVNTRYFANNPNQGYKFTFPWADFKNNHIDRLDLFAAMFFEQCTLGKMLAKYVVLHQSDKCLMILRPYQFYAVEALLDKVANSVKNGYIWHTTGSGKTLTSFKAAQLIAEMSDIDKVLFVVDRHDLDTQTKKEYDAFAPGAVDSTDNTKELVKALQGKKKLMITTIQKLNNAVQKDRYSKGLQGVKDKNIVMIFDECHRSQFGEMHSNITGFFSKIRYFGFTGTPIFADNANNGCTTKDIFGERLHEYLIKDAIADENVLGFLVEYHGKWKRKSENDKQVKSIDTAEVLLKDERIASITDFILSNYNSSTYERDFNAMLAVGGVKMLIKYYDMFKSRNHDLKIATIFTYTQNEESEDEFTGLGQGFVSVQNTRDILESYIKDYNETFGTEFDTDHFGLYYDDINKRMKNRQIDLLIVSDMFLTGFDAKKLNTLYVDKNLNYHGLLQAFSRTNRVLNEKKKFGKITCFRDLKQQTDDAIKLYSNNKSSEVVLMKPYEKLVERFNEMAAEFLSYFPTVKSVGNLESELDKRRFVILFRAMLRLRNEVKGYNEFDAEDLTIEEQRFADYQSKYLDMSNEFAITSEKEDAESILQDIDFELELVHRDIINVMYILALLQDLKPESSSYPKDRKAVLDTMDSNPELRSKIALIDNFIKLHIDGRQSNDLPADMESDLDKYIATQKAIAIEQVATEEGIDSTLLHEYISEYEYLGKPKNEIIKRAIDPLKLSFMDAQSKKKSLIDKMKDIIKLFSWN”, which protein production is on record?
The protein production was “failed”.

For “MTIRAGSLDRRTLLRGAIATAAMGSFAVACSSPSSEDKESDSGPKGEKSANNPFGAAANSTVEAAIFDGGYGTDYVDYANQVLGSQVKGLKVQVKPVVDIAPQLQPRFVGGNPPDLIDNSGEDQIGFLGILDQLEELDDLFEASTYEGKKIADIVYPGVKDPGTFKDKFVALNYVMTVYGVWYSKTLFEENGWTPPKTWDEALDLGQEAKKKGKYLFVHGKEAATYYRTLLIDSAIKEGGDEVRLALENLEKGCWSHPAVQGVIKVMETMVKQKMFVPGGSGTQFQKAQAIWSNDQKALLYPSGGWIENEMKKATKADFQMTGIPSMTLTDKPALPYEALRAAAGEPFIVPKQGKNPAGGKEVLRAMLSEKAAANFSKTKLAPTIVKGTVPADGYGSTALVSQTKMLEAAGTNIFNYMFVETYGLNTDQLVPWNSFLAGDLDGKGLTSALQKISDKVREDDSVDKVKVS”, which protein production is on record?
The protein production was “failed”.

For “MTIRMIPHPIFSSPTKRRREKPDPPARAGAAQPSGPARMTPQQQTEWQQRLIALLESQPPDDDGAHDLSHLHRVWAVARTLLAHYPDADSIVVMAGSYLHDLVNLPKNHPQRQLASHWSAERARQLLADSGLTEAQLDNLAHAIEAHSYSAAIPPRTLEARIVQDADRMDALGPVGLARMFYVSGRMGRALAHPLDPLAEHRGRDDQAWAIDHIDVKLAKLPGMMQTEAGRAMAERKLEWLFHFRDEFCRDWMARLEHHHHHH”, which protein production is on record?
The protein production was “not failed”.

Which protein production does the source give for “MTISEVSKKYELSADTLRYYERIGLIPPVNRNKSGIRSFTEEDCEWVNFIKCMRGAGLSIETLIEYVAMFQQGSSTIKARKELLIEQRNQLAKRIEEMQKTLERLNFKIDRYEEGIIEKEKVLKSSRNKKMEAVS” here?
The protein production was “failed”.

Which protein production does the source give for “MTISEVSKKYELSADTLRYYERIGLIPPVNRNKSGIRSFTEEDCEWVNFIKCMRGAGLSIETLIEYVAMFQQGSSTIKARKELLIEQRNQLAKRIEEMQKTLERLNFKIDRYEEGIIEKEKVLKSSRNKKMEAVSYE” here?
Its protein production is “not failed”.

With “MTITPQQLIALLPLLIVGLTVVVVMLSIAWRRNHFLNATLSVLGLNAALVSLWFVGQNGAMDVTPLIRVDGYAMLYTGLVLLASLATCTFAYPWLEGYKDNKEEFYLLVLIAALGGILLAGANHLAALFLGIELISLPLFGLVGYAFRQKRSLEASIKYTILSAAASSFLLFGMALVYANSGNLSFLALGKSLADNMLHEPLLLAGLGLMIVGLGFKLSLVPFHLWTPDVYQGAPAPVSTFLATASKIAIFGVVMRLFLYMPVGNSEAVRVVLGLIAFASIIFGNLMALSQTNIKRLLGYSSISHLGYLLVALIALQSGEMSMEAVGVYLAGYLFSSLGAFGVVSLMSSPYRGPDADSLFSYRGLFWHRPILSAVMTVMMLSLAGIPMTLGFIGKFYVLAVGVHAHLWWLVAAVVVGSAIGLYYYLRVAVSLYLSAPEQLNRDAPSNWQYSAGGIVVLISALLVLVLGIWPQPLISIVQLATPLM” as the sequence, how does the protein production read?
The protein production was “failed”.

For “MTITSFGPANRIARTAETHPLTWRLRDDGEPVWLDEYQTKDGYAAARKALTQQAPDDIVQSVKDSGLKGRGGAGFPTGVKWGLMPKDESMNIRYLLCNADEMEPNTWKDRMLMEQLPHLLIEGMLISARALKAYRGYIFLRGEYVTAAKHLNRAVAEAKAAGLLGKNILGTGFDFELFVHTGAGRYICGEETALINSLEGRRANPRSKPPFPAAVGVWGKPTCVNNVETLCNVPAIVNNGNDWYKSLAREGSEDHGTKLMGFSGKVKNPGLWELPFGVQARELFEDYAGGMRDGFTLKCWQPGGAGTGFLLPEHLDAQMYAGGIAKVGTRMGTGLAMAVDDSVNMVSLLRNMEEFFAQESCGFCTPCRDGLPWSVKILRAIENGHGQPGDIETLLGLVNFLGPGKTFCAHAPGAVEPLGSAIKYFRSEFEAGIAPASAAMLVPGKSPTVVGALEHHHHHH”, which protein production is on record?
Its protein production is “failed”.

For “MTIYSPDTINFNGVSGDRYWFDEPFPYTGVADIDERLSGFPVAVFLPHHRPRQETPLVIGLQGMCAPYGWNAFIVPILIEMGIAVALFDPPLSGERSLVRTSTTLVQNEIKPLIDRGIPFDTALFLSIFRTTARDIGKIREFCGDRYGLTDSRLALFGVSMGVLLSAYAFTANSLGDRLLGTIGHADLPSFAKSWGRPFLPDLAASPLGGLAESLLQRLQPDLAPLFNLLRLTKNLKYQDEYAWDCNPMNYIQQVESHRRVRFLIGANDSIVKIKDARACAQKFPDGDCYIVPGMGHGTRQSGVSFVDHVRYFLATQLGDWRG”, which protein production is on record?
Its protein production is “failed”.

Which protein production does the source give for “MTKACEANKSFLQSAVDKKEYSRTLLVDDGSDEGARSAGAFRPTPHRKGHGGRSPRRDQSPRRDSPQTASRTRLSSELIADLLQKKRERPTRSSSFPKRDKTIARTDRSPRSSPLPRSMGPPPPVIASPSSRSWGERPVGVQILTRRV” here?
Its protein production is “failed”.

Which protein production does the source give for “MTKAIQSSVQVGELATGQALTVPIYSFMGSENSAPSVYIQANVHGAEVQGNAVIYQLMTLLEGYQVLGDITLAPLANPLGINQKSGEFTLGRFDPITGVNWNREYFDHNVDIQNWYAEHQHLTNSELFCAYRSMLVETCQARLTHSFGISTGHRLAVNLQAMAHQADIVLDLHTGPKSCKHLYCPEYDIDAARFFSIPYTLIIPNSFGGAMDEATFCPWWQLTEYATSQGREFSVPVSAFTLELASQERIDLADALEDAKGILAYLSHRGVIAEKVNPASMERFGCYLKDYKKFHAPKAGLIEYCASVGEPLTAGKPLVNILRIDLYGSEQAYQAISLPMDCVPILHFASASVLQGTELYKVMTNVFPLQPS” here?
The protein production was “not failed”.

Which protein production does the source give for “MTKDRQIKKTKTAIYSAFIALLQKKEYSKITVRDMITLANVGRSTFYAHYESKEMLLKELCEELFHHLFRQKRNVTFEDYLVHILKHFEQNKDSIATLLLSNDPYFLLRFKNELEHDVYPNLRCKYIDKTTIPEVFLKQFVLSSFIETLKWWLHQRQRMSANELLKYYLELIK” here?
Its protein production is “failed”.

For “MTKEPRNLSEWIKELKKASREAVILVEGKNDKKALSKFSIKNVIDLSGKRYADVVDMLEGKWEKVILLFDLDTHGERINQKMKELLSSQGFLVDENFRNFLKKWNIIHIEEINGGKNS”, which protein production is on record?
Its protein production is “not failed”.

Which protein production does the source give for “MTKGISALSNIATLRSRELGPETFIPYVRHVDETTIALESRALMTMIALDGVSFETSDVRDLNGLHRSLNTLYRNIADERLALWTHVVRRRDNAYPEGRFANPFSDGLNARYRERMVNENLFRNDLYLTLVWHPGRDPAEKAAKLLSRLSKARRSDTELDGQALKHLRDHVADVAAGLQRFGPRQLTLHEHDGILFSEPSEVLHQIVGGRREPIPLTEGRISSAIYSDRVIFGRETIEIRHEADSRYAGMFGFKEYPATTRSGMLDAILTAPFELILTQSFAFTSKADARTIMGRKQNQMVSAGDKAASQIEELGEAMDDLESNRFVLGEHHLTLAVFAPSVKELTDHMAKARAYLTSGGAVVAREDLGLEAAWWAQLPGNFRYRARSGAITSRNFAALAPYHSYPAGKKDGNEWGPAVAMLKTASGSPFYFNFHHGDLGNSFVCGPSGTGKTVLLNFMLSQLEKHGPHMVFFDKDRGADLFVRAAGGTYLPLKNGVATGCAPLKALEFTAENKVFLTGWIAKLVRSGPGELSITELRDIALAVDGVADLPVERRSIGALRTFLNNTDPEGIAARLRRWEKGGPLGWVFDNEADDIGIGARFIGYDMTDFLDNEEIRTPLMAYLFYRIEQLIDGRRIIIVIDEFWKALQDEGFRDLAQNKLKTIRKQNGLMLFATQSPRDAIVSPIAHTIIEQCPTQIFLPNPRGDRADYVDGFKLTEREFELVSRELSVESRRFIVKQGHNSVVAELNLNGFDDELAILSGRTANVELADAIRLEIGEGREDWLAVFHQRRKTA” here?
The protein production was “failed”.

For “MTKGSLSGLPRENIELPDGSVLRRRSLVSDDAFIDAVTADVGHLGEWLRWARHPPTREETERFRAEQDADWDAGRSFVYVLTPPDRHDQVLGGGAMFPNGEVGVLEIGYWVCSPATGRGLATRAAAALTEEGLGLPGVKAMEIHCDRANARSAAIPPRIGYRLLRIEADEPQTVAEAGRSMVWRHDGA”, which protein production is on record?
Its protein production is “failed”.

Which protein production does the source give for “MTKIAILGANGRLGRVVAKAFIDAGFDVRTVTRTGKVPAELDGATAVAGDALDRQSLISATEGVDIIFNGLNPIYTDWGKCLPMAENVMAACHANNALHLFPGTVYNYGSPMPAVITEDTPFHPTTEKGRIRCAMEELFRREADAGRVRTILLRAGDFFGGTGSGSWFDLVVAAKMSKGVYTAPGPVDLVHEWAYLPDFAVGFVALARNLDRLGSYEALNFPGHAVTDLEIKAAAEKALGRPLKMTSMPWWVLRAGSPFVAMWREIVSMSYLRFEPHQLASTRLEGIIGEIPHTPLDQAVAQALEDIGIATVKGMKAA” here?
The protein production was “failed”.

For “MTKISKAACIGGGVIGGGWIARFLLAGIDVDVFDPHPEAGRIVGEIIANAEKAYAMLTGAPLPPRGKLTFCETLAEAVADADWIQESVPERLDLKRGVLTEIDAAARPEALIGSSTSGLLPTDLQRNMTHPERLFVAHPYNPVYLLPLVEIVGGEKTSAGTIRAAIERLAPIGMKGVHIAKEIEAFVGDRLLEALWREALWLIHDDICTVETLDDVIRYSFGLRWAQMGLFQTYRIAGGEAGMRHFLAQFGPCLAWPWTKLTDVVDLDDALIEKIGRQSDEQAAGLSIRALERIRDENLVGILQALKGGDNGKGWGAGKLLKDFEQTLWARGGDAAASADPSKPLRLVETKVSPAWVDYNGHMTEHRYLQVFGDTSDALLRLIGVDLAYVEAGHSYYTVESHIRHLGEAKLGQAIHSACQILTADEKRLHVFHTLRDTATGAVIATAEQMLLHVDSKEGKAVAAPAAVLDRVKAIAAAHAELALPEGAGRHVGQRR”, which protein production is on record?
The protein production was “failed”.
